The text below walks through data of patent publication US20130252987A1, “METHOD OF REGULATING PLASMA LIPOPROTEINS” (MCMASTER UNIVERSITY, priority 2010, published 2013).

Test [1] has as its system human PCSK9. Kind of test: PCSK9 siRNA studies in HepG2 cells. It counts as cell-based. The protocol:
Four siRNAs targeting human PCSK9 synthesized by Qiagen (Qiagen, MD) were purchased and tested. The siRNAs were transfected into HepG2 cells at a final concentration of 10 nM, using HiPerFect transfection reagent (Qiagen, MD) at 0.5% final volume. The siRNA that produced the maximum decrease in PCSK9 mRNA and protein expression in HepG2 cells (70% knockdown by Western blot 24 hours post-transfection) was chosen for further experiments. As a negative control, HepG2 cells were transfected with a scrambled siRNA control vector in HiPerFect (both Qiagen, MD). As a positive control, HepG2 cells were transfected with siRNA targeting the constitutively expressed GAPDH gene, using HiPerFect (Qiagen, MD). Western blots against PCSK9 (Caymen Chemicals, MI), LDL receptor (Fitzgerald International, CA) and GAPDH (Sigma, Mo.) were done in control untreated HepG2 cells, cells transfected with the optimal PCSK9 siRNA (Qiagen, MD) and cells treated with human resistin (50 ng/mL) plus PCSK9 siRNA 24 hours post-transfection.
The extent of the role of PCSK9 in the resistin mediated reduction in hepatocyte LDL receptor levels was examined. […] PCSK9 protein levels in hepatocytes were next assessed in response to PCSK9 siRNA administration, with and without resistin. […]

Test [2] relates to HepG2 cells. As to the kind of experiment: real-time quantitative PCR of mRNA expression. The format is cell-based, human. The protocol:
Total RNA was isolated from cell lysates (RNeasy Mini Kit, Qiagen, Germantown, Md.) and used as a template for cDNA synthesis (QuantiTech Reverse Transcription Kit, Qiagen, Germantown, Md.). Quantitative real-time PCR was performed using an Applied Biosystems 7300 Real Time PCR system (Carlsbad, Calif.) according to the manufacturer's instructions and with the SYBR green master kit (Qiagen, Germantown, Md.). Primers for the real-time PCR internal control gene cyclophilin A (sense, 5′-[…]-3′ (SEQ ID NO:3); antisense, 5′-[…]-3′ (SEQ ID NO:4)) were synthesized (IDT, Coralville, Iowa). Primers for succinate degydrogenase (SDH) (another real-time PCR internal control gene), apoB, microsomal triglyceride transfer protein (MTP), Srebp1, Srebp2, acetyl-coA carboxylase (ACC), HMG-coA reductase, HMG-coA synthase, squalene synthase (SS), the LDL receptor, PCSK9, fatty acid synthase (FAS), […] (SCD), DGAT1 and DGAT2 were purchased (proprietary sequences not available) (Qiagen, Germantown, Md.). The values reported for each mRNA were corrected to the cyclophilin A and SDH mRNA values.
Total RNA was isolated from cell lysates (RNeasy Mini Kit, Qiagen, MD) and used as a template for cDNA synthesis (QuantiTech Reverse Transcription Kit, Qiagen, MD). Quantitative real-time PCR was performed using an Applied Biosystems 7300 Real-Time PCR system (Carlsbad, Calif.) according to the manufacturer's instructions and with the SYBR green kit (Qiagen, MD). Primers for the real-time PCR internal control gene cyclophilin A, as identified in Example 1, were synthesized (IDT, IA). Primers for succinate dehydrogenase (SDH) (another real-time PCR internal control gene), SREBP2, HMG-CoA reductase, the LDL receptor and PCSK9 were purchased (proprietary sequences not available) (Qiagen, MD). The values reported for each mRNA were corrected to the cyclophilin A and SDH mRNA values.

The subject of test [3] is HepG2 cells. As to the kind of experiment: immunoblotting for LDL receptor and PCSK9 in HepG2 cells. Conditions: 24 hours.
Procedure: Cells were propagated in 10% FBS-containing DMEM supplemented with 1% penicillin-streptomycin and 0.06% L-glutamine (584 mg/L) at 37° C., 5% CO2. During treatment experiments with human recombinant resistin (Calbiochem, UK) and/or lovastatin (Sigma, Mo.), the media was changed to 1% FBS-containing DMEM. All of the experiments to follow were performed at least three times and representative results are shown. Cells were stimulated with resistin at various doses (0, 10, 25, 50, and 100 ng/mL) for 24 hours or with a single dose at 50 ng/mL resistin. In other experiments, the microsomal triglyceride transfer protein (MTP) inhibitor, CP-346086, was administered at 1.3 nM, either alone or together with resistin (50 ng/mL) for 24 hours. Lovastatin was administered at 1 to 5 μM for 24 hours to stimulate the cells, either alone or in combination with resistin (50 ng/mL). Unless otherwise indicated, all experiments were performed in triplicate in three independent experiments.
Cell lysates collected with RIPA buffer (50 mM Tris, 150 mM sodium chloride, 1% NP-40, 12 mM sodium deoxycholate, 3.5 mM SDS, pH 7.4) and protease inhibitor cocktail (Roche Diagnostics, QC) were analyzed for human LDL receptor and PCSK9 as previously described (Rashid et al. Proc Nall Acad Sci U S A 2005; 102:5374-9). Equivalent amounts of total protein, determined by Bradford reaction was subjected to sodium dodecyl sulfate polyacrylamide gel electrophoresis (SDS-PAGE), transferred onto nitrocellulose membranes (BioRad, CA) and immunoblotted using antibodies against the LDL receptor (Fitzgerald International, CA) and PCSK9 (Cayman Chemicals, MI). Horseradish peroxidase-conjugated antibodies (BioRad, CA) were used as secondary antibodies. Immunoreactive bands were visualized with a chemiluminescence kit (PerkinElmer Life Sciences, MA). The blots were exposed to KODAK Biomax films, and the signal was quantified by densitometry using Quantity One version 4.6.7. software (Bio Rad, CA).
All of the experiments were performed at least three times and representative results are shown. Dose-response experiments were performed in HepG2 cells with 0, 10, 25, 50, 75 and 100 ng/mL of human resistin for 24 hours. Western blots were then performed on cell lysates to detect the cellular expression of LDL receptor protein.

B1: human resistin: recombinant lyophilized purified human resistin (Calbiochem); cysteine-rich cytokine, single 12 kDa band (protein)
chain: KTLCSMEEAINERIQEVAGSLIFRAISSIGLECQSVTSRGDLATCPRGFAVTGCTCGSACGSWDVRAETTCHCQCAGMDWTGARCCRVQP
For B1, in test [1] (resistin 50 ng/mL plus PCSK9 siRNA), the “effect on LDL receptor elevation induced with PCSK9 siRNA” value is recorded as “reversed”. In addition, the “cellular PCSK9 levels compared with siRNA treatment alone” value in test [1] (resistin plus PCSK9 siRNA) was “enhanced”. Further, in test [2] (50 ng/mL, 24 hours), the “apoB mRNA expression” value was “significant increase”, the “expression of DGAT1” value was “increased to smaller but significant extents”, the “expression of SCD” value is listed as “increased to smaller but significant extents” and the “expression of the LDL RECEPTOR gene” value was “increased”. Moreover, in test [2] (50 ng/mL, 24 hours), the “expression of the PCSK9 gene” value is “increased”, the “increase in the expression of ACC” value is on record as 3 fold, the “increase in the expression of HMG-CoA REDUCTASE” value is 2 fold and the “increase in the expression of HMG-CoA SYNTHASE” value is 2 fold. Besides, in test [2] (50 ng/mL, 24 hours), the “increase in the expression of SQUALENE SYNTHASE” value is listed as 2 fold, the “mRNA expression of SREBP1” value was “significantly increased” and the “mRNA expression of SREBP2” value is “significantly increased”. Also, the “apoB mRNA expression” value in test [2] (100 ng/mL dose, after dose-response increase from 0 to 50 ng/mL) is “decreased”. The “reduction of LDL receptor protein expression” value in test [3] (25 ng/mL resistin) was found to be 30%. Moreover, the “decrease in cellular LDL receptor protein expression” value in test [3] (50 ng/mL resistin) stood at 40%. In addition, the “decrease in cellular LDL receptor protein expression” value in test [3] (75 ng/mL resistin) came out at 40%. Also, in test [3] (resistin 50 ng/mL, with lovastatin 5 μM), the “increase in cellular PCSK9 protein” value is 50%.
